In patent US20250333501A1 (University of California, published 2025) one finds FACS fluorescence data, which are given here for 13 molecules.

In experiment [1] the target is T1, human CLDN6 fused to GFP, expressed on engineered HEK293T cells (HEK293T-CLDN6-mGFP) (human, UniProt P56747 1-220).
T1 construct: It calls residues 1-21 a signal peptide; also called Claudin-6; HEK293T-CLDN6-mGFP Artificial CLDN6+; not shown: mGFP tag
T1 sequence: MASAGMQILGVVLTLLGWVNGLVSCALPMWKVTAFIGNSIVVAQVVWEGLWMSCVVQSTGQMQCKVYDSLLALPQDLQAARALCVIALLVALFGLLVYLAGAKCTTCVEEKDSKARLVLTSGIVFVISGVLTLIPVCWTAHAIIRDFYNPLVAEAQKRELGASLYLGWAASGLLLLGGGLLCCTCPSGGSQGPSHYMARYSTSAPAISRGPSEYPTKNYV
In words: FACS, 1.5 µg Ab, 293T clone with human CLDN6. In short, it runs like this:
(§1)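 Engineered 293T clones expressing human CLDN6 were detached with EDTA and incubated with Alexa Fluor 647 NHS ester-labelled humanized antibody, at 0.3 µg or 1.5 µg, for 30 min on ice in the dark. After washing, the cells were read by flow cytometry on a BD Accuri C6 in channel FL4H. Fluorescence in this direct-binding assay reflects relative antigen binding strength.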

Experiment [2] has as its target T2, CLDN6 endogenously expressed by human cancer cell lines (ARK2, OVCA429) (human, UniProt P56747 1-220).
T2 construct: Untagged endogenous protein; also called Endogenous CLDN6+
T2 sequence: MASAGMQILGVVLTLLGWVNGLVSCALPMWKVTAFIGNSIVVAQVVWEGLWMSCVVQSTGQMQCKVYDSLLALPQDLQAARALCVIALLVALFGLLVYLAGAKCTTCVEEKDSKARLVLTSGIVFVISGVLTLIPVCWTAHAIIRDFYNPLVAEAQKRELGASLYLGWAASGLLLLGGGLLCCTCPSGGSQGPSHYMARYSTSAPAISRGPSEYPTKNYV
The experiment can be described thus: FACS, 0.3 µg Ab, ARK2 cells. The protocol:
(§2) FACS assays were also carried out to determine relative antigen binding strengths of the humanized antibodies (at either 1.5 μg or 0.3 μg) for binding to CLDN6 as expressed by the indicated cancer cell lines. 2nd Ab only was used as a negative control.
In general terms: A flow cytometer gives signals particle by particle.

In experiment [3] the target is T2, CLDN6 endogenously expressed by human …. The experiment can be described thus: FACS, 1.5 µg Ab, ARK2 cells. The protocol: as §2
Experiment [4] has as its target T1, human CLDN6 fused to GFP, expressed on …. The experiment can be described thus: FACS, 0.3 µg Ab, 293T clone with human CLDN6. The essentials:
as §1

In experiment [5] the target is T2, CLDN6 endogenously expressed by human …. The experiment can be described thus: FACS, 1.5 µg Ab, OVCA429 cells.

B1: AB4-6 (antibody, V domains shown)
VH: QVQLVQSGAEVKKPGASVKMSCKASGYTFTSYTMHWIRQAPGQGLEWIGYINPSSTYTHYAQKFQGRATLTADKSTSTAYMELSSLRSEDTAVYYCSRGELGGFAYWGQGTLVTVSS
VL: DVVMTQSPLSLPVTLGQPASISCRSSQSLVHSDGNTYLNWYQQRPGQSPRLLIYKVSNRFSGVPDRFSGSGSGTDFTLKISRVEAEDVGVYYCSQSTHVPYTFGQGTKLEIK
notes: also called Humanized AB 4-6
Regarding B1, the FACS fluorescence in experiment [1] was determined as 29200; in experiment [2], 3300; in experiment [3], 9840; in experiment [4] it was 10800.

B2: AB4-9 (antibody, V domains shown)
VH: QVQLVQSGAEVKKPGASVKMSCKASGYTFTSYTMHWIRQAPGQGLEWIGYINPSSTYTHYIKKFKDRATLTADTSTSTAYMELSSLRSEDTAVYYCSRGELGGFAYWGQGTLVTVSS
VL: DVVMTQSPLSLPVTLGQPASISCRSSQSLVHSDGNTYLNWYQQRPGQSPRLLIYKVSNRFSGVPDRFSGSGSGTDFTLKISRVEAEDVGVYYCSQSTHVPYTFGQGTKLEIK
notes: Humanized; also called Humanized AB 4-9
As to B2, the FACS fluorescence amounted to 56900 in experiment [1], 3060 in experiment [2], 7790 in experiment [3] and 37200 in experiment [4].

B3: AB4-12 (antibody, V domains shown)
VH: QVQLVQSGAEVKKPGASVKMSCKASGYTFTSYTMHWIRQAPGQGQEWIGYINPSSTYTHYIKKFKDRATLTADKSTSTAYMELSSLRSEDTAVYYCSRGELGGFAYWGQGTLVTVSS
VL: DVVMTQSPLSLPVTLGQPASISCRSSQSLVHSDGNTYLNWYQQRPGQSPRLLIYKVSNRFSGVPDRFSGSGSGTDFTLKISRVEAEDVGVYYCSQSTHVPYTFGQGTKLEIK
notes: Humanized; also called Humanized AB 4-12
As to B3, the FACS fluorescence in experiment [1] was 86200; in experiment [2], 9690; in experiment [3], 24200; in experiment [4] it was 71100.

B4: AB4-11 (antibody, V domains shown)
VH: QVQLVQSGAEVKKPGASVKMSCKASGYTFTSYTMHWIRQAPGQGLEWIGYINPSSTYTHYIKKFKDRATLTADKSTSTAYMELSSLRSEDTAVYYCSRGELGGFAYWGQGTLVTVSS
VL: DVVMTQSPLSLPVTLGQPASISCRSSQSLVHSDGNTYLNWYQQRPGQSPRLLIYKVSNRFSGVPDRFSGSGSGTDFTLKISRVEAEDVGVYYCSQSTHVPYTFGQGTKLEIK
notes: Humanized; also called Humanized AB 4-11
Regarding B4, the FACS fluorescence in experiment [1] amounted to 61200; in experiment [2] it was 6390; in experiment [3] it was 9170; in experiment [4] it was 37800.

B5: AB4-7 (antibody, V domains shown)
VH: QVQLVQSGAEVKKPGASVKMSCKASGYTFTSYTMHWIRQAPGQGQEWIGYINPSSTYTHYAQKFQGRATLTADKSTSTAYMELSSLRSEDTAVYYCSRGELGGFAYWGQGTLVTVSS
VL: DVVMTQSPLSLPVTLGQPASISCRSSQSLVHSDGNTYLNWYQQRPGQSPRLLIYKVSNRFSGVPDRFSGSGSGTDFTLKISRVEAEDVGVYYCSQSTHVPYTFGQGTKLEIK
notes: also called Humanized AB 4-7
As for B5, the FACS fluorescence in experiment [1] is 33300; in experiment [2] it was 2770; in experiment [3], 7560; in experiment [4] it was 19200.

B6: AB4-8 (antibody, V domains shown)
VH: QVQLVQSGAEVKKPGASVKVSCKASGYTFTSYTMHWVRQAPGQGLEWMGYINPSSTYTHYIKKFKDRVTMTADTSTSTVYMELSSLRSEDTAVYYCSRGELGGFAYWGQGTLVTVSS
VL: DVVMTQSPLSLPVTLGQPASISCRSSQSLVHSDGNTYLNWYQQRPGQSPRLLIYKVSNRFSGVPDRFSGSGSGTDFTLKISRVEAEDVGVYYCSQSTHVPYTFGQGTKLEIK
notes: Humanized; also called Humanized AB 4-8
In the case of B6, the FACS fluorescence in experiment [1] worked out at 77600; in experiment [2], 3120; in experiment [3], 7310; in experiment [4] it was 49300.

B7: AB4-10 (antibody, V domains shown)
VH: QVQLVQSGAEVKKPGASVKMSCKASGYTFTSYTMHWIRQAPGQGQEWIGYINPSSTYTHYIKKFKDRATLTADTSTSTAYMELSSLRSEDTAVYYCSRGELGGFAYWGQGTLVTVSS
VL: DVVMTQSPLSLPVTLGQPASISCRSSQSLVHSDGNTYLNWYQQRPGQSPRLLIYKVSNRFSGVPDRFSGSGSGTDFTLKISRVEAEDVGVYYCSQSTHVPYTFGQGTKLEIK
notes: Humanized; also called Humanized AB 4-10
For the molecule B7, the FACS fluorescence in experiment [1] turned out to be 77200; in experiment [2] it was 7210; in experiment [3], 20200; in experiment [4], 50800.

B8: AB1-7 (antibody, V domains shown)
VH: QVQLVQSGAEVKKPGASVKMSCKASGYTFTTYTMHWVRQAPGQGLEWIGFINPSSGYTDYAQKFQGRVTLTADTSTSTVYMELSSLRSEDTAVYYCANGDYYVAYWGQGTLVTVSS
VL: DIQLTQSPSSLSASVGDRVTMTCTASSSVSSTYFHWYQQKPGKAPKLLIYSTSNLASGVPSRFSGSGSGTDYTLTISSMQPEDAATYYCHQYHRSPLTFGQGTKLEIK
notes: Humanized; also called Humanized AB 1-7
Take B8: the FACS fluorescence in experiment [1] is 207000; in experiment [2] it was 4440; in experiment [3] it was 11200; in experiment [4], 79200; in experiment [5], 44700.

B9: AB1-11 (antibody, V domains shown)
VH: QVQLVQSGAEVKKPGASVKMSCKASGYTFTTYTMHWVRQAPGQGLEWIGFINPSSGYTDYAQKFQGRVTLTADKSTSTVYMELSSLRSEDTAVYYCANGDYYVAYWGQGTLVTVSS
VL: DIQLTQSPSSLSASVGDRVTMTCTASSSVSSTYFHWYQQKPGKAPKLWIYSTSNLASGVPSRFSGSGSGTDYTLTISSMQPEDAATYYCHQYHRSPLTFGQGTKLEIK
notes: Humanized; also called Humanized AB 1-11
With B9, the FACS fluorescence in experiment [1] was determined as 113000; in experiment [2], 53900; in experiment [3] it was 97700; in experiment [4], 64900.

B10: AB1-4 (antibody, V domains shown)
VH: QVQLVQSGAEVKKPGASVKVSCKASGYTFTTYTMHWVRQAPGQGLEWMGFINPSSGYTDYAQKFQGRVTMTADTSTSTVYMELSSLRSEDTAVYYCANGDYYVAYWGQGTLVTVSS
VL: DIQLTQSPSSLSASVGDRVTMTCTASSSVSSTYFHWYQQKPGKAPKLLIYSTSNLASGVPSRFSGSGSGTDYTLTISSMQPEDAATYYCHQYHRSPLTFGQGTKLEIK
notes: also called Humanized AB 1-4
As to B10, the FACS fluorescence turned out to be 197000 in experiment [1]; 3640 in experiment [2]; 10000 in experiment [3]; 102000 in experiment [4]; 34600 in experiment [5].

B11: AB1-3 (antibody, V domains shown)
VH: QVQLVQSGAEVKKPGASVKVSCKASGYTFTTYTMHWVRQAPGQGLEWMGFINPSSGYTDYAQKFQGRVTMTADTSTSTVYMELSSLRSEDTAVYYCANGDYYVAYWGQGTLVTVSS
VL: DIQMTQSPSSLSASVGDRVTITCTASSSVSSTYFHWYQQKPGKAPKLLIYSTSNLASGVPSRFSGSGSGTDYTLTISSLQPEDFATYYCHQYHRSPLTFGQGTKLEIK
notes: also called Humanized AB 1-3
For B11, the FACS fluorescence in experiment [1] is 142000; in experiment [2], 2830; in experiment [3] it was 10800; in experiment [4], 142000; in experiment [5], 27500.

B12: AB3-7 (antibody, V domains shown)
VH: EVQLLESGGGLVQPGGSMRLSCAASGFTFSNYWMNWVRQAPGKGLEWVAQIRLKSDNYATHYADSVKGRFTISRDDSKNTVYLQMNSLRAEDTGVYYCNDGPPSGSWGQGTLLTVSS
VL: DIQMTQSPSSLSASVGDRVTITCRISENIYSYLAWYQQKPGKAPKLLVYNAKILVEGVPSRFSGSGSGTDFTLTISSLQPEDFGTYYCQHHYTVPWTFGQGTKLEIK
notes: also called Humanized AB 3-7
Take B12: the FACS fluorescence in experiment [1] was found to be 169000; in experiment [2] it was 36000; in experiment [3], 90400; in experiment [4], 106000.

B13: AB1-Chim (antibody, V domains shown)
VH: QVQLQQSAAELARPGASVKMSCKASGYTFTTYTMHWVKQRPGQGLEWIGFINPSSGYTDYNQKFKDRTTLTADKSSSTVYMQLSSLTSEDSAVYYCANGDYYVAYWGQGTLVTVSA
VL: QIVLTQSPAIMSASLGERVTMTCTASSSVSSTYFHWYQQKPGSSPKLWIYSTSNLASGVPRRFSGSASGTSYSLTISSMEAEDAATYYCHQYHRSPLTFGAGTKLELK
notes: 'chim' is the pre-humanized form (parental variable regions); also called pre-humanized (chimeric) form of AB1
Regarding B13, the FACS fluorescence came out at 364000 in experiment [1]; 58800 in experiment [2]; 51900 in experiment [3]; 312000 in experiment [4]; 177000 in experiment [5].
